Experimental data published in patent publication US10752675B2, “Compounds for treating the remyelination blockade in diseases associated with the expression of HERV-W envelope protein” (GENEURO S.A., priority 2012, dated 2020).

Columns and labels:
[1] = tested on: MSRV-Env induced EAE in C57BL/6 mice; experiment: EAE clinical score, Example 3.A (EAE induced with MOG and MSRV-Env); type: in vivo; details: treatment from day 12 to day 29: GNbAc1 200 μg once, L-NAME 600 μg IP and SMT 1 mg IP every 4 days, DMF 1 mg daily in drinking water
Text: Pathogen free female C57BL/6 nice (6-8 weeks old) were purchased from the Charles River laboratories and maintained at the animal facilities for one week before immunization. One day before immunization, all mice have been weighed, and then evaluated on the Rotarod Test. Rotarod:
Animals were weighed and clinically scored 5 days per week according to the following criteria: 0=no signs; 1=tail paralysis or hyper-reflex of hind limb(s) or unilateral hind limb weakness; 2=bilateral hind limb or forelimb weakness; 3=plus unilateral paralysis or major deficit; 4=complete hind limb or forelimb paralysis; 5=plus partial paralysis or major deficit of opposite limbs; 6=moribund or dead. These were adapted from standard criteria, in order to reflect the more rapid induction of brain and cervical cord lesions with this model.
(§1) All groups of 6 (six) mice have been first injected s.c. in the neck on day 0 then in the dorsal flanks on day 7 and 14; with 200 μg of MOG/mouse+60 μg of MSRV-Env+IFA.
(§2) For Groups G to H, the treatments with GNbAc1, L-NAME, SMT and DMF alone or together with GNbAc1 with the doses indicated below, have been initiated on day 12 post immunization when the progression of EAE clinical symptoms was already observed. GNbAc1 humanized antibody was administered once, but L-Name or SMT was administered every 4 days until termination of the study on day 29. Regarding Groups E and H, attributed for the treatment with DMF, we have previously determined the volume of daily water consumption by each mouse and it has been determined that (in our condition), each mouse consumed around 3.5 ml drinking water per day. Thus, on the basis of this measurement, a dose of 1 mg DMF+0.08% Methocel per mouse were added to 3.5 ml drinking water daily.
350 ng of pertussis toxin (PTX) per animal was injected (i.p.) in all groups on the same day following each immunogen injection, and replicated 2 days later, as usual in EAE protocols in order to facilitate the migration lymphocytes through the blood-brain barrier.

[2] = tested on: MSRV-Env induced EAE in C57BL/6 mice; experiment: Rotarod test, Example 3.A (MSRV-Env induced EAE); type: in vivo; details: Example 3.A doses
Protocol: 9 and 8 days before immunization. Transfer of mice, in their home cages, from the holding room to the experimental room. Mice are habituated to the experimental room for 15 min. During the training period, each mouse was placed on the rotarod at a constant speed (4 rpm) if one mouse was falling, she was back on rotarod, when mice were comfortable on the rotarod, mice were running during 120 sec. All mice were returned to their cage, the speed was increased to 13 rpm and mice were again put on the rotarod for 120 sec. All mice were returned to their cage, the speed was increased to 19 rpm and mice were again put on the rotarod for 120 sec. The experimental-room environment were kept constant between test sessions with respect to temperature, and light intensity.
1 day before each immunization, mice were transferred in their home cages, from the holding room to the experimental room. Mice were habituated to the experimental room for 15 min. Mice then received two trials at 10 increasing speed levels, ranging from 7 to 40 rpm. Individual delays before falling off the rotarod (for the two trials at each speed level) was recorded until 60 sec. Thus, training and performance on the Rotarod system were determined for each animal.
The ROTAROD test results are expressed as kinetics of the mean of individual scores for each group with SEM indicated by bars, for each test day and for each test speed within the discriminating range for neuromotor impairment in present conditions (16 to 29 rpm).
They are calculated for each individual mouse, for each test day and for each speed value, as the relative gain or loss of time on Rotarod (before falling), compared to the first test day at the same speed (D-7, before starting the disease induction in relevant groups). The value is calculated as “Time on Rotarod at dayX”−“Time at Day-7 for the same mouse at the same speed”. Figures illustrate the kinetics for the different groups on the whole study period, for representative discriminative speed values when validated to differentiate ill from healthy animals in our conditions (e.g., too high or too low speed values either made healthy ones fall immediately or ill ones capable to sustain a slow movement).
as §1, §2

B1: GNbAC1: recombinant humanized anti-Env IgG4 monoclonal antibody comprising the CDRs of SEQ ID No. 1 to 6 (antibody, chains of the INN, looked up, V domains shown)
VH: QVQLVQSGAEVKKPGSSVKVSCKASGYTFTDYEMHWVRQAPGQGLEWIGAVAPETGGTAYNQKFKGRATITADKSTSTAYMELSSLRSEDTAVYYCTSTVVPFAYWGQGTLVTVSS
VL: QIQLTQSPSSLSASVGDRVTITCSASSSVSYMYWYQQKPGKAPKAWIYRTSNLASGVPSRFSGSGSGTDYTLTISSLQPEDFATYYCQQYQSLPLTFGGGTKVEIK
- EAE clinical score kinetics and recovery [1]: improve after its injection
- EAE clinical score kinetics and recovery ([1]; listed as GNbAc1): diminished slightly
- Rotarod scores in all conditions (16 to 29 rpm tests) ([2]; compared to untreated group A / to GNbAc1 alone): greatly stabilized and/or improved scores
- Time on Rotarod at 23 rpm relative to Day -7 ([2]; end of study period): recovered a score similar to control mice without disease induction
- Time on Rotarod at 26 rpm relative to Day -7 ([2]; end of study period): recovered a score similar to D,G,C,E and H groups
- Time on Rotarod at 29 rpm relative to Day -7 ([2]; end of study period): recovered a score similar to control mice without disease induction
